The text below walks through data of US11549123B2, “Plant EPSP synthases and methods of use” (PIONEER HI-BRED INTERNATIONAL, INC., priority 2015, dated 2023).

What all share (type): biochemical, Zea mays
Substrate in series [1]: C=C(OP(=O)(O)O)C(=O)O
Kind of series: Substrate saturation analysis with glyphosate (Example 8), Zm-H6. Conditions: other: substrate saturation, pH 7.0. The text has this: Generally, (kcat/KM)*KI is obtained by performing substrate saturation analysis in the absence and presence of inhibitor. However, that analysis takes longer. […] To validate the method, (kcat/KM)*KI was quantified using both methods—traditional (saturation) and the instant method (rapid), for variants of maize 5-enolpyruvylshikimate-3-phosphate synthase (EPSPS) and its competitive inhibitor, glyphosate.
The amino acid sequence of mature Zea mays EPSPS was obtained from GenBank entry CAA44974.1 (SEQ ID NO:2). A nucleotide sequence was created to add an N-terminal methionine and to optimize codon usage for expression in E. coli. The synthesized gene was cloned into an expression vector that provides a T7 promoter driving expression of the protein and a 10× N-terminal histidine tag. Variants selected for this study include native maize EPSPS and variants generated by a gene shuffling cascade described herein. […] Protein concentration was determined by absorbance at 280 nm using an extinction coefficient of 0.676 OD/mg/m L. The proteins were normalized to 0.5 mg/mL for assay.
EPSPS activity was determined by quantifying the phosphate generated by the reaction. […] The absorbance change that occurs was monitored continuously at 360 nm, where the extinction is 11,200 M-1 cm-1, with a Spectramax plate reader (Molecular Devices). […]

Substrate in series [2]: C=C(OP(=O)(O)O)C(=O)O
Kind of series: Substrate saturation kinetic analysis with glyphosate, H6-V87T. Particulars: other: substrate saturation.

Substrate in series [3]: C=C(OP(=O)(O)O)C(=O)O
The series can be described thus: Substrate saturation kinetic analysis with glyphosate, H6-H54E. Conditions: other: substrate saturation.

Substrate in series [4]: C=C(OP(=O)(O)O)C(=O)O
Kind of series: Substrate saturation kinetic analysis with glyphosate, H6-K246G. Conditions: other: substrate saturation.

Substrate in series [5]: C=C(OP(=O)(O)O)C(=O)O
The series can be described thus: Substrate saturation kinetic analysis with glyphosate, H6-A76V. Particulars: other: substrate saturation.

Substrate in series [6]: C=C(OP(=O)(O)O)C(=O)O
Kind of series: Substrate saturation kinetic analysis with glyphosate, H6-A36G. Conditions: other: substrate saturation.

Substrate in series [7]: C=C(OP(=O)(O)O)C(=O)O
The series can be described thus: Substrate saturation kinetic analysis with glyphosate, Zm-T103I. Conditions: other: substrate saturation.

Substrate in series [8]: C=C(OP(=O)(O)O)C(=O)O
Kind of series: Substrate saturation kinetic analysis with glyphosate, Zm-P107S. Particulars: other: substrate saturation.

B1: Zea mays EPSPS variant Zm-H6 (868-H6) (Zea mays; A1R/A3W/A415G/A71Q/D401G/E301S/E390G/G101A/I207L/K83R/L97C/T278A/T360S/T440Q/V437R) (protein)
chain: MRGWEEIVLQPIKEISGTVKLPGSKSLSNRILLLAALSEGTTVVDNLLNSEDVHYMLGALRTLGLSVEADKQAKRAVVVGCGGRFPVEDAKEEVQLFCGNAATAMRPLTAAVTAAGGNATYVLDGVPRMRERPIGDLVVGLKQLGADVDCFLGTDCPPVRVNGIGGLPGGKVKLSGSISSQYLSALLMAAPLALGDVEIEIIDKLISLPYVEMTLRLMERFGVKAEHSDSWDRFYIKGGQKYKSPKNAYVEGDASSASYFLAGAAITGGTVTVEGCGTASLQGDVKFAEVLEMMGAKVTWTSTSVTVTGPPREPFGRKHLKAIDVNMNKMPDVAMTLAVVALFADGPTAIRDVASWRVKESERMVAIRTELTKLGASVEEGPDYCIITPPGKLNVTAIDTYGDHRMAMAFSLAACGEVPVTIRDPGCTRKTFPDYFDRLSQFVKN
B1: in series [1], the Km was found to be 20.6 µM and the kcat amounted to 198 min⁻¹.

B2: Zea mays EPSPS variant Zm-H6 (868-H6) with V87T (H6-V87T) (Zea mays; A1R/A3W/A415G/A71Q/D401G/E301S/E390G/G101A/I207L/K83R/L97C/T278A/T360S/T440Q/V437R/V86T) (protein)
chain: MRGWEEIVLQPIKEISGTVKLPGSKSLSNRILLLAALSEGTTVVDNLLNSEDVHYMLGALRTLGLSVEADKQAKRAVVVGCGGRFPTEDAKEEVQLFCGNAATAMRPLTAAVTAAGGNATYVLDGVPRMRERPIGDLVVGLKQLGADVDCFLGTDCPPVRVNGIGGLPGGKVKLSGSISSQYLSALLMAAPLALGDVEIEIIDKLISLPYVEMTLRLMERFGVKAEHSDSWDRFYIKGGQKYKSPKNAYVEGDASSASYFLAGAAITGGTVTVEGCGTASLQGDVKFAEVLEMMGAKVTWTSTSVTVTGPPREPFGRKHLKAIDVNMNKMPDVAMTLAVVALFADGPTAIRDVASWRVKESERMVAIRTELTKLGASVEEGPDYCIITPPGKLNVTAIDTYGDHRMAMAFSLAACGEVPVTIRDPGCTRKTFPDYFDRLSQFVKN
notes: 868-H6 plus V87T; E. coli BL21(DE3), Ni-NTA purified
For B2, in series [2], the Km amounted to 27.5 µM and the kcat stood at 259 min⁻¹.

B3: Zea mays EPSPS variant Zm-H6 (868-H6) with H54E (H6-H54E) (Zea mays; A1R/A3W/A415G/A71Q/D401G/E301S/E390G/G101A/H53E/I207L/K83R/L97C/T278A/T360S/T440Q/V437R) (protein)
chain: MRGWEEIVLQPIKEISGTVKLPGSKSLSNRILLLAALSEGTTVVDNLLNSEDVEYMLGALRTLGLSVEADKQAKRAVVVGCGGRFPVEDAKEEVQLFCGNAATAMRPLTAAVTAAGGNATYVLDGVPRMRERPIGDLVVGLKQLGADVDCFLGTDCPPVRVNGIGGLPGGKVKLSGSISSQYLSALLMAAPLALGDVEIEIIDKLISLPYVEMTLRLMERFGVKAEHSDSWDRFYIKGGQKYKSPKNAYVEGDASSASYFLAGAAITGGTVTVEGCGTASLQGDVKFAEVLEMMGAKVTWTSTSVTVTGPPREPFGRKHLKAIDVNMNKMPDVAMTLAVVALFADGPTAIRDVASWRVKESERMVAIRTELTKLGASVEEGPDYCIITPPGKLNVTAIDTYGDHRMAMAFSLAACGEVPVTIRDPGCTRKTFPDYFDRLSQFVKN
notes: 868-H6 plus H54E; E. coli BL21(DE3), Ni-NTA purified
As to B3, in series [3], the Km amounted to 27.9 µM and the kcat turned out to be 248 min⁻¹.

B4: Zea mays EPSPS variant Zm-H6 (868-H6) with K246G (H6-K246G) (Zea mays; A1R/A3W/A415G/A71Q/D401G/E301S/E390G/G101A/I207L/K245G/K83R/L97C/T278A/T360S/T440Q/V437R) (protein)
chain: MRGWEEIVLQPIKEISGTVKLPGSKSLSNRILLLAALSEGTTVVDNLLNSEDVHYMLGALRTLGLSVEADKQAKRAVVVGCGGRFPVEDAKEEVQLFCGNAATAMRPLTAAVTAAGGNATYVLDGVPRMRERPIGDLVVGLKQLGADVDCFLGTDCPPVRVNGIGGLPGGKVKLSGSISSQYLSALLMAAPLALGDVEIEIIDKLISLPYVEMTLRLMERFGVKAEHSDSWDRFYIKGGQKYKSPGNAYVEGDASSASYFLAGAAITGGTVTVEGCGTASLQGDVKFAEVLEMMGAKVTWTSTSVTVTGPPREPFGRKHLKAIDVNMNKMPDVAMTLAVVALFADGPTAIRDVASWRVKESERMVAIRTELTKLGASVEEGPDYCIITPPGKLNVTAIDTYGDHRMAMAFSLAACGEVPVTIRDPGCTRKTFPDYFDRLSQFVKN
notes: 868-H6 plus K246G; E. coli BL21(DE3), Ni-NTA purified
On to B4, for which, in series [4], the Km amounted to 24.0 µM and the kcat was determined as 210 min⁻¹.

B5: Zea mays EPSPS variant Zm-H6 (868-H6) with A76V (H6-A76V) (Zea mays; A1R/A3W/A415G/A71Q/A75V/D401G/E301S/E390G/G101A/I207L/K83R/L97C/T278A/T360S/T440Q/V437R) (protein)
chain: MRGWEEIVLQPIKEISGTVKLPGSKSLSNRILLLAALSEGTTVVDNLLNSEDVHYMLGALRTLGLSVEADKQAKRVVVVGCGGRFPVEDAKEEVQLFCGNAATAMRPLTAAVTAAGGNATYVLDGVPRMRERPIGDLVVGLKQLGADVDCFLGTDCPPVRVNGIGGLPGGKVKLSGSISSQYLSALLMAAPLALGDVEIEIIDKLISLPYVEMTLRLMERFGVKAEHSDSWDRFYIKGGQKYKSPKNAYVEGDASSASYFLAGAAITGGTVTVEGCGTASLQGDVKFAEVLEMMGAKVTWTSTSVTVTGPPREPFGRKHLKAIDVNMNKMPDVAMTLAVVALFADGPTAIRDVASWRVKESERMVAIRTELTKLGASVEEGPDYCIITPPGKLNVTAIDTYGDHRMAMAFSLAACGEVPVTIRDPGCTRKTFPDYFDRLSQFVKN
For B5, in series [5], the Km was found to be 45.2 µM and the kcat turned out to be 209 min⁻¹.

B6: Zea mays EPSPS variant Zm-H6 (868-H6) with A36G (H6-A36G) (Zea mays; A1R/A35G/A3W/A415G/A71Q/D401G/E301S/E390G/G101A/I207L/K83R/L97C/T278A/T360S/T440Q/V437R) (protein)
chain: MRGWEEIVLQPIKEISGTVKLPGSKSLSNRILLLAGLSEGTTVVDNLLNSEDVHYMLGALRTLGLSVEADKQAKRAVVVGCGGRFPVEDAKEEVQLFCGNAATAMRPLTAAVTAAGGNATYVLDGVPRMRERPIGDLVVGLKQLGADVDCFLGTDCPPVRVNGIGGLPGGKVKLSGSISSQYLSALLMAAPLALGDVEIEIIDKLISLPYVEMTLRLMERFGVKAEHSDSWDRFYIKGGQKYKSPKNAYVEGDASSASYFLAGAAITGGTVTVEGCGTASLQGDVKFAEVLEMMGAKVTWTSTSVTVTGPPREPFGRKHLKAIDVNMNKMPDVAMTLAVVALFADGPTAIRDVASWRVKESERMVAIRTELTKLGASVEEGPDYCIITPPGKLNVTAIDTYGDHRMAMAFSLAACGEVPVTIRDPGCTRKTFPDYFDRLSQFVKN
As for B6, in series [6], the Km amounted to 30.8 µM and the kcat came to 246 min⁻¹.

B7: Zea mays EPSPS variant Zm-T103I (Zea mays; T102I) (protein)
chain: MAGAEEIVLQPIKEISGTVKLPGSKSLSNRILLLAALSEGTTVVDNLLNSEDVHYMLGALRTLGLSVEADKAAKRAVVVGCGGKFPVEDAKEEVQLFLGNAGIAMRPLTAAVTAAGGNATYVLDGVPRMRERPIGDLVVGLKQLGADVDCFLGTDCPPVRVNGIGGLPGGKVKLSGSISSQYLSALLMAAPLALGDVEIEIIDKLISIPYVEMTLRLMERFGVKAEHSDSWDRFYIKGGQKYKSPKNAYVEGDASSASYFLAGAAITGGTVTVEGCGTTSLQGDVKFAEVLEMMGAKVTWTETSVTVTGPPREPFGRKHLKAIDVNMNKMPDVAMTLAVVALFADGPTAIRDVASWRVKETERMVAIRTELTKLGASVEEGPDYCIITPPEKLNVTAIDTYDDHRMAMAFSLAACAEVPVTIRDPGCTRKTFPDYFDVLSTFVKN
notes: native maize plus T103I; E. coli BL21(DE3), Ni-NTA purified
As to B7, in series [7], the Km turned out to be 171 µM and the kcat was 320 min⁻¹.

B8: Zea mays EPSPS variant Zm-P107S (Zea mays; P106S) (protein)
chain: MAGAEEIVLQPIKEISGTVKLPGSKSLSNRILLLAALSEGTTVVDNLLNSEDVHYMLGALRTLGLSVEADKAAKRAVVVGCGGKFPVEDAKEEVQLFLGNAGTAMRSLTAAVTAAGGNATYVLDGVPRMRERPIGDLVVGLKQLGADVDCFLGTDCPPVRVNGIGGLPGGKVKLSGSISSQYLSALLMAAPLALGDVEIEIIDKLISIPYVEMTLRLMERFGVKAEHSDSWDRFYIKGGQKYKSPKNAYVEGDASSASYFLAGAAITGGTVTVEGCGTTSLQGDVKFAEVLEMMGAKVTWTETSVTVTGPPREPFGRKHLKAIDVNMNKMPDVAMTLAVVALFADGPTAIRDVASWRVKETERMVAIRTELTKLGASVEEGPDYCIITPPEKLNVTAIDTYDDHRMAMAFSLAACAEVPVTIRDPGCTRKTFPDYFDVLSTFVKN
notes: native maize plus P107S; E. coli BL21(DE3), Ni-NTA purified
B8: in series [8], the Km is 14.8 µM and the kcat came out at 1798 min⁻¹.
